Measured values from publication PMC10992053, “Rationally introducing non-canonical amino acids to enhance catalytic activity of LmrR for Henry reaction” (Bioresources and Bioprocessing, 2024).

System: O=Cc1ccc([N+](=O)[O-])cc1
Test: Henry reaction, product by HPLC, Michaelis-Menten fit
Type: biochemical, Lactococcus cremoris
Details: nitromethane 1 M (excess), 3-18 mM aldehyde, 0.3 mg/mL enzyme, 40 °C, 5 min
Excerpt: Henry reaction, product by HPLC, Michaelis-Menten fit on LmrR (Lactococcal multidrug resistance Regulator)

Substance: LmrR (Lactococcal multidrug resistance Regulator) (Lactococcus cremoris subsp. cremoris MG1363; V15F)
- Km: 8.28 mM
- Vmax: 1960 µM/min
- kcat: 1.47 s⁻¹
- kcat/Km: 178 M⁻¹ s⁻¹
